Experimental data published in US20250122303A1 (HUMMINGBIRD BIOSCIENCE PTE, published 2025).
Where a chain is given by its changes, count along the chain named.

Assays:
[1] = target: T1, His-tagged FcγRIIIa (V158) (human, UniProt P08637 17-208); assay: BLI (Octet QK384), His-tagged FcgRIIIa (V158) on anti-Penta-HIS tips, antibody 500 nM to 15.6 nM in solution, global 1:1 fit
T1 construct: not shown: His tag
Experimental: (§1) All measurements were performed at 25° C. with agitation at 1000 rpm. […] Sensograms were referenced for buffer effects and then fitted using the Octet QK384 user software (Pall ForteBio, USA). Kinetic responses were subjected to a global fitting using a one site binding model to obtain values for association (Kₒₙ), dissociation (Koff) rate constants and the equilibrium dissociation constant (KD). Only curves that could be reliably fitted with the software (R²>0.90) were included in the analysis.

His-tagged human HER3 [2] = target: T2, His-tagged human HER3 (human, UniProt P21860 20-643); assay: BLI (Octet QK384), antibody on anti-human IgG capture tips, His-tagged human HER3 35-278 nM, global 1:1 fit
T2 construct: Antigen of the BLI experiments and of the HER2-Fc dimerisation ELISA; also called HER3 His; not shown: His tag
Experimental: as §1, with “The anti-HER3 antibody clones in IgG1 format were analysed for binding affinity to human HER3. Bio-Layer Interferometry (BLI) experiments were performed using the Octet QK384 system (ForteBio). anti-Human IgG Capture (AHC) Octet sensor tips (Pall ForteBio, USA) were used to anti-HER3 antibodies (25 nM). All” for “All”

His-tagged human HER3 [3] = target: T2, His-tagged human HER3; assay: BLI (Octet QK384), antibody on anti-human IgG capture tips, His-tagged human HER3 in solution, global one-site fit
How it was run: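 Anti-HER3 IgG1 antibodies (25 nM) captured on anti-human IgG tips; binding measured by BLI at 25 °C with 1000 rpm agitation.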

His-tagged human HER3 [4] = target: T2, His-tagged human HER3; assay: BLI (Octet QK384), antibody on anti-human IgG capture tips, His-tagged human HER3 in solution, global 1:1 fit, R^2 = 0.9955, kon Error 5.62E+03; Response -0.0012 / 0.1507 / 0.3396 / 0.4384 at 35 / 69 / 139 / 278 nM
Experimental: as §1, with “The anti-HER3 antibody clones in IgG1 format were analysed for binding affinity to human HER3. Bio-Layer Interferometry (BLI) experiments were performed using the Octet QK384 system (ForteBio). anti-Human IgG Capture (AHC) Octet sensor tips (Pall ForteBio, USA) were used to anti-HER3 antibodies (25 nM). All” for “All”

His-tagged human HER3 [5] = target: T2, His-tagged human HER3; assay: BLI (Octet QK384), antibody on anti-human IgG capture tips, His-tagged human HER3 in solution, global 1:1 fit, R^2 = 0.9949, kon Error 6.34E+03; Response 0.0096 / 0.1318 / 0.3036 / 0.3995 at 35 / 69 / 139 / 278 nM
Experimental: as §1, with “The anti-HER3 antibody clones in IgG1 format were analysed for binding affinity to human HER3. Bio-Layer Interferometry (BLI) experiments were performed using the Octet QK384 system (ForteBio). anti-Human IgG Capture (AHC) Octet sensor tips (Pall ForteBio, USA) were used to anti-HER3 antibodies (25 nM). All” for “All”

His-tagged human HER3 [6] = target: T2, His-tagged human HER3; assay: BLI (Octet QK384), antibody on anti-human IgG capture tips, His-tagged human HER3 35-278 nM, global 1:1 fit; kdis Error 1.17E-04
Experimental: as §1, with “The anti-HER3 antibody clones in IgG1 format were analysed for binding affinity to human HER3. Bio-Layer Interferometry (BLI) experiments were performed using the Octet QK384 system (ForteBio). anti-Human IgG Capture (AHC) Octet sensor tips (Pall ForteBio, USA) were used to anti-HER3 antibodies (25 nM). All” for “All”

His-tagged human HER3 [7] = target: T2, His-tagged human HER3; assay: BLI (Octet QK384), antibody on anti-human IgG capture tips, His-tagged human HER3 in solution, global 1:1 fit, R^2 = 0.9957, kon Error 3.75E+03; Response 0.0006 / 0.0697 / 0.1929 / 0.3524 at 35 / 69 / 139 / 278 nM
Experimental: as §1, with “The anti-HER3 antibody clones in IgG1 format were analysed for binding affinity to human HER3. Bio-Layer Interferometry (BLI) experiments were performed using the Octet QK384 system (ForteBio). anti-Human IgG Capture (AHC) Octet sensor tips (Pall ForteBio, USA) were used to anti-HER3 antibodies (25 nM). All” for “All”

His-tagged human HER3 [8] = target: T2, His-tagged human HER3; assay: BLI (Octet QK384), antibody on anti-human IgG capture tips, His-tagged human HER3 35-278 nM, global 1:1 fit; kdis Error 1.27E-04
Experimental: as §1, with “The anti-HER3 antibody clones in IgG1 format were analysed for binding affinity to human HER3. Bio-Layer Interferometry (BLI) experiments were performed using the Octet QK384 system (ForteBio). anti-Human IgG Capture (AHC) Octet sensor tips (Pall ForteBio, USA) were used to anti-HER3 antibodies (25 nM). All” for “All”

B1: 10D1 comprising GASDALIE and LCKC substitutions in CH2 region (antibody, human IgG1, kappa)
heavy: DVQLQESGPDLVKPSQSLSLTCTVTGYSITSGYSWHWIRQFPGNKLEWMGSIHYSGGTNYNPSLKSRISITRDTSKNQFFLQLNSVTTEDTATYFCARMTTAPRYPFDYWGQGTTLTVSSASTKGPSVFPLAPSSKSTSGGTAALGCLVKDYFPEPVTVSWNSGALTSGVHTFPAVLQSSGLYSLSSVVTVPSSSLGTQTYICNVNHKPSNTKVDKKVEPKSCDKTHTCPPCPAPELLAGPDVFCFPPKPKDTLMISRTPEVTCVVVDVSHEDPEVKFNWYVDGVEVHNAKTKPREEQYNSTYRVVSVLTVLHQDWLNGKEYKCKVSNKALPLPEECTISKAKGQPREPQVYTLPPSRDELTKNQVSLTCLVKGFYPSDIAVEWESNGQPENNYKTTPPVLDSDGSFFLYSKLTVDKSRWQQGNVFSCSVMHEALHNHYTQKSLSLSPGK
light: DIVMTQSQKFMSTSVGDRVSVTCKASQIVGSNVAWYQQKPGQSPKPLIYSASYRYSGVPDRFTASGSGTDFTLTITNVQSEDLAEYFCQQYSSHPLTFGAGTKLELKRTVAAPSVFIFPPSDEQLKSGTASVVCLLNNFYPREAKVQWKVDNALQSGNSQESVTEQDSKDSTYSLSSTLTLSKADYEKHKVYACEVTHQGLSSPVTKSFNRGEC
notes: also called Fc engineered 10D1 variant
[1]
  Kd: 34 nM

B2: anti-HER3 clone 10D1_c75 IgG1 (antibody, V domains shown)
VH: DVQLQEWGAGLLKPSETLSLTCAVTGYSITSGYSWHWIRQFPGNGLEWIGSIHYSGGTNYNPTLKSRITISRDTSKNQFSLKLSSVTAADTAVYFCARMTTAPRYPFDYWGQGTLVTVSS
VL: DIVMTQSPSSLSASVGDLVTITCKASQIVGSNVAWYQMKPGKSPKPLIYSASYLYFGVPSRFSGSGSGTDFTLTISSLQPEDVAEYFCQQYSSHPLTFGPGTKVEIKR
notes: Humanised 10D1 variant, IgG1/kappa
His-tagged human HER3 [2]
  koff: < 1e-07 s⁻¹
His-tagged human HER3 [3]
  Kd: < 0.001 nM
His-tagged human HER3 [4]
  kon: 163000 M⁻¹ s⁻¹

B3: anti-HER3 clone 10D1_c77 IgG1 (antibody, V domains shown)
VH: B2 VH with T63S
VL: B2 VL with D1V, L18R, S31P, M38Q, L54G, F56S, G57D, S93T
notes: as for B2
His-tagged human HER3 [5]
  kon: 179000 M⁻¹ s⁻¹
His-tagged human HER3 [6]
  koff: 0.000346 s⁻¹
His-tagged human HER3 [3]
  Kd: 1.93 nM

B4: anti-HER3 clone 10D1_c85o1 IgG1 (antibody, V domains shown)
VH: B2 VH with N44K, H53R, T63S, S84G, M99E
VL: B2 VL with L18R, M38Q, S52R, L54Q, F56S, S60F, E85T, F87Y
notes: Humanised 10D1 variant, IgG1/kappa; also called 10D1_c8501
His-tagged human HER3 [7]
  kon: 93600 M⁻¹ s⁻¹
His-tagged human HER3 [8]
  koff: 0.0017 s⁻¹
His-tagged human HER3 [3]
  Kd: 18.2 nM
